Molecular target: ACE2-Fc fusion protein (extracellular domain of human ACE2 and the Fc region of human IgG1) (human) (UniProt Q9BYF1)
Test: ELISA

Sequence of ACE2-Fc fusion protein (extracellular domain of human ACE2 and the Fc region of human IgG1) (human) (Q9BYF1 18-740): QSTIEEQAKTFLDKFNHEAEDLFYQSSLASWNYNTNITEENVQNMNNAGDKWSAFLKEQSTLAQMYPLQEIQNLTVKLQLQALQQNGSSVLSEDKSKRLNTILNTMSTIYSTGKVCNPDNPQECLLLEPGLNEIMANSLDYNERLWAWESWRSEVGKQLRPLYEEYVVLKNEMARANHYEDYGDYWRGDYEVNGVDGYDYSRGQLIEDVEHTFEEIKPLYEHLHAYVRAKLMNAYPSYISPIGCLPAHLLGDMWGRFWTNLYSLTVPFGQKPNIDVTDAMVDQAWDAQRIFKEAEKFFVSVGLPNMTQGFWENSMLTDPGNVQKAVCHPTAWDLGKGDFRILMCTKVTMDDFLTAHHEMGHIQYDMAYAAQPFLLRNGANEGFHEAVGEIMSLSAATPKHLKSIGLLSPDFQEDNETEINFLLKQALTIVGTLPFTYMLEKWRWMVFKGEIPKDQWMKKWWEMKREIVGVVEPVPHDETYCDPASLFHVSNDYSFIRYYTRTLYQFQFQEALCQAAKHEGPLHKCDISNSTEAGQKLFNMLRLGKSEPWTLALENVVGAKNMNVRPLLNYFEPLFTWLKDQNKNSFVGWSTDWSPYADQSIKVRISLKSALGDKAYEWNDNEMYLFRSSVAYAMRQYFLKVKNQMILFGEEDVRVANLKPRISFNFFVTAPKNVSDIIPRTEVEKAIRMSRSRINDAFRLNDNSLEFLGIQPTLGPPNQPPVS
Sequence of recombinant S1-subunit or RBD of HCoV-NL63 (domain or fragment) (Q6Q1S2 19-717 limits assumed): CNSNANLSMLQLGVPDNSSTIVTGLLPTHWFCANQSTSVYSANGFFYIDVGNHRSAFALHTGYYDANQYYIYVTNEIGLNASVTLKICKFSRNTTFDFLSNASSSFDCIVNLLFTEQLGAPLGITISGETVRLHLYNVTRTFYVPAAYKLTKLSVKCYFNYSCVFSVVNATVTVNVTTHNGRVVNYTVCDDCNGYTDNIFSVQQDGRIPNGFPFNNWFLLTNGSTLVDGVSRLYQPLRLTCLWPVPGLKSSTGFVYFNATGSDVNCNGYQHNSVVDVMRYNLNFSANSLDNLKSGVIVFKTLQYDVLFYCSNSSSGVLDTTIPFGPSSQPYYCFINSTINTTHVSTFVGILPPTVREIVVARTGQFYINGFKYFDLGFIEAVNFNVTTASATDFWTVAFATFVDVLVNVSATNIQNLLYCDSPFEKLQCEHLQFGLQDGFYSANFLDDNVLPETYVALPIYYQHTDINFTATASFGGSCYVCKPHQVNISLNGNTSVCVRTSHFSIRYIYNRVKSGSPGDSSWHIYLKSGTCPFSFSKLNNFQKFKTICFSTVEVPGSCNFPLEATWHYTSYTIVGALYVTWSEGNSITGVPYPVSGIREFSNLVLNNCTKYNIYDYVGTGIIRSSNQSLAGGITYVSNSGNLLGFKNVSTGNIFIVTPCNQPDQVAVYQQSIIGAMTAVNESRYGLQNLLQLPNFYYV

Row | Substance | EC50 [nM]
1 | recombinant S1-subunit or RBD of HCoV-NL63 (domain or fragment) | 24.2
2 | recombinant S1-subunit or RBD of SARS-CoV (domain or fragment) | 1.1
3 | recombinant S1-subunit or RBD of SARS-CoV-2 (domain or fragment) | 11.8
